Reference: patent US20010052137A1, “Axin domain-like polypeptide inhibitors of glycogen synthase kinase 3 beta activity and activators of wnt signaling” (Trustees of the University of Pennsylvania, priority 2000, published 2001)

Molecular target: T1, axin (Xenopus laevis, UniProt Q9YGY0)
T1 construct: Full length (FL) Xaxin was assembled into plasmid CS2MT using restriction fragments of partial cDNA clones; expressed in transfected cells; host or cells: Xenopus embryos (fertilized eggs injected with mRNA, harvested at stage 8)
Experiment: Co-immunoprecipitation of myc-tagged and HA-tagged axin in Xenopus embryos
Type: binding

B1: full length Xaxin: full length Xenopus axin, amino acid residues 1-842 (SEQ ID NO: 8) (protein, listed as Xenopus laevis)
chain: MSVKGKGFPLDLGGSFTEDAPRPPVPGEEGELITTDQRPFSHTYYSLKNDGIKNETSTATPRRPDLDLGYEPEGSASPTPPYLKWAESLHSLLDDQDGIHLFRTFLQQENCADLLDFWFACSGFRKLEPNDSKVEKRLKLAKAIYKKYVLDSNGIVSRQIKPATKSFIKDCVLRQQIDPAMFDQAQMEIQSMMEDNTYPVFLKSDIYLEYTTIGGESPKNYSDQSSGSGTGKGPSGYLPTLNEDEEWRCDQGGEHERERECIPSSLFSQKLALDSSSHCAGSNRRLSDGREFRPGTWREPVNPYYVNTGYAGAPVTSANDSEQQSMSSDADTMSLTDSSVDGIPPYRLRKHYRREMQESANANGRGPLPHIPRTYHMPKDIHVDPEKFAAELISRLEGVLRDREAEQKLEERLKRVRAEEEGDDGDVSSGPSVISHKLPSGPPMHHFNSRYSETGCVGMQIRDAHEENPESILDEHVQRVMKTPGCQSPGTGRHSPKSRSPDGHLSKTLPGSLGTMQTGHGKHSSKSTAKVDSGNLHHHKHVYHHVHHHGGVKPKEQIDGESTQRVQTNFPWNVESHNYATKSRNYAESMGMAPNPMDSLAYSGKVSMLSKRNAKKADLGKSESASHEMPVVPEDSERHQKILQWIMEGEKEIIRHKKSNHSSSSAKKQPPTELARPLSIERPGAVHPWVSAQLRNVVQPSHPFIQDPTMPPNPAPNPLTQLVSKPGARLEEEEKKAAKMPQKQRLKPQKKNVSAPSQPCDNIVVAYYFCGEPIPYRTMVKGRVVTLGQFKELLTKKGNYRYYFKKVSDEFDCGVVFEEVREDDMILPIYEEKIIGQVEKID
axin self-interaction (co-immunoprecipitation): interacts with itself
